# Laboratory results from IntAct's records for PubMed 31515488.
# B1: Protein DBF4 homolog B (Homo sapiens), Q8NFT6 (parent)
# chain: MSEPGKGDDCLELESSMAESRLRAPDLGVSRCLGKCQKNSPGARKHPFSGKSFYLDLPAGKNLQFLTGAIQQLGGVIEGFLSKEVSYIVSSRREVKAESSGKSHRGCPSPSPSEVRVETSAMVDPKGSHPRPSRKPVDSVPLSRGKELLQKAIRNQGSISGGGSGGSSSLLTNARSWGVRILHVDEMMMHVQQLSLASLCVKKQQPKKPEGTCPAAESRTRKVARLKAPFLKIEDESRKFRPFHHQFKSFPEISFLGPKDASPFEAPTTLGSMHHTRESKDGEPSPRSAAHTMPRRKKGYCECCQEAFEELHVHLQSAQHRSFALEAHLYAEVDRIIAQLSHSFADIPFQAGLPRWSGSPASDCDPLCPETLHPHQPSHPRAASPRIRKEDSCQASVTQGRAAGQQRWTESLDGVMGPPASHTCVSATTLLPALPKGSREQGCLCPCPASFTQSHLVTSLALLPGEWSPAEDMPLHPSQENSFAPADIPVKGPLLFPEARPWLMSARCWVRPFPFVTWGCLIPHDTTPLHEEVSPCPCLRLGYLYLLLTQSLWCRVRVPSLSTAGPIPRTSHPCTLAFPSYLNDHDLGHLCQAKPQGWNTPQPFLHCGFLAVDSG
# B2: Copper homeostasis protein cutC homolog (Homo sapiens), Q9NTM9 (parent)
# chain: MKRQGASSERKRARIPSGKAGAANGFLMEVCVDSVESAVNAERGGADRIELCSGLSEGGTTPSMGVLQVVKQSVQIPVFVMIRPRGGDFLYSDREIEVMKADIRLAKLYGADGLVFGALTEDGHIDKELCMSLMAICRPLPVTFHRAFDMVHDPMAALETLLTLGFERVLTSGCDSSALEGLPLIKRLIEQAKGRIVVMPGGGITDRNLQRILEGSGATEFHCSARSTRDSGMKFRNSSVAMGASLSCSEYSLKVTDVTKVRTLNAIAKNILV
# partner: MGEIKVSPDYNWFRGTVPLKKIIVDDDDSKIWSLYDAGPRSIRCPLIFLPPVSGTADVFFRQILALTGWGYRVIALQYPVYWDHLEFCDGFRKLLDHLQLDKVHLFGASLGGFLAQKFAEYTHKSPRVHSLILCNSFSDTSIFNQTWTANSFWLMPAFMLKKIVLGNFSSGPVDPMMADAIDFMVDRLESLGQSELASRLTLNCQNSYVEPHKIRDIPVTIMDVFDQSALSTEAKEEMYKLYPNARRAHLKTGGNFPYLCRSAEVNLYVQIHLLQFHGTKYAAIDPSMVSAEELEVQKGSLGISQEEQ
# B3: PDZ and LIM domain protein 1 (Homo sapiens), O00151 (parent)
# chain: MTTQQIDLQGPGPWGFRLVGGKDFEQPLAISRVTPGSKAALANLCIGDVITAIDGENTSNMTHLEAQNRIKGCTDNLTLTVARSEHKVWSPLVTEEGKRHPYKMNLASEPQEVLHIGSAHNRSAMPFTASPASSTTARVITNQYNNPAGLYSSENISNFNNALESKTAASGVEANSRPLDHAQPPSSLVIDKESEVYKMLQEKQELNEPPKQSTSFLVLQEILESEEKGDPNKPSGFRSVKAPVTKVAASIGNAQKLPMCDKCGTGIVGVFVKLRDRHRHPECYVCTDCGTNLKQKGHFFVEDQIYCEKHARERVTPPEGYEVVTVFPK
# B4: Lebercilin-like protein (Homo sapiens), O95447 (parent)
# chain: MSLADLTKTNIDEHFFGVALENNRRSAACKRSPGTGDFSRNSNASNKSVDYSRSQCSCGSLSSQYDYSEDFLCDCSEKAINRNYLKQPVVKEKEKKKYNVSKISQSKGQKEISVEKKHTWNASLFNSQIHMIAQRRDAMAHRILSARLHKIKGLKNELADMHHKLEAILTENQFLKQLQLRHLKAIGKYENSQNNLPQIMAKHQNEVKNLRQLLRKSQEKERTLSRKLRETDSQLLKTKDILQALQKLSEDKNLAEREELTHKLSIITTKMDANDKKIQSLEKQLRLNCRAFSRQLAIETRKTLAAQTATKTLQVEVKHLQQKLKEKDRELEIKNIYSHRILKNLHDTEDYPKVSSTKSVQADRKILPFTSMRHQGTQKSDVPPLTTKGKKATGNIDHKEKSTEINHEIPHCVNKLPKQEDSKRKYEDLSGEEKHLEVQILLENTGRQKDKKEDQEKKNIFVKEEQELPPKIIEVIHPERESNQEDVLVREKFKRSMQRNGVDDTLGKGTAPYTKGPLRQRRHYSFTEATENLHHGLPASGGPANAGNMRYSHSTGKHLSNREEMELEHSDSGYEPSFGKSSRIKVKDTTFRDKKSSLMEELFGSGYVLKTDQSSPGVAKGSEEPLQSKESHPLPPSQASTSHAFGDSKVTVVNSIKPSSPTEGKRKIII
# B5: Vacuolar protein sorting-associated protein 37B (Homo sapiens), Q9H9H4 (parent)
# chain: MAGAGSEARFAGLSLVQLNELLEDEGQLTEMVQKMEETQNVQLNKEMTLASNRSLAEGNLLYQPQLDTLKARLTQKYQELQVLFEAYQIKKTKLDRQSSSASLETLLALLQAEGAKIEEDTENMAEKFLDGELPLDSFIDVYQSKRKLAHMRRVKIEKLQEMVLKGQRLPQALAPLPPRLPELAPTAPLPYPAPEASGPPAVAPRRIPPPPPPVPAGRLATPFTAAMSSGQAVPYPGLQCPPLPPRVGLPTQQGFSSQFVSPYPPPLPQRPPPRLPPHQPGFILQ
# B6: Spindle and kinetochore-associated protein 3 (Homo sapiens), Q8IX90 (parent)
# chain: MDPIRSFCGKLRSLASTLDCETARLQRALDGEESDFEDYPMRILYDLHSEVQTLKDDVNILLDKARLENQEGIDFIKATKVLMEKNSMDIMKIREYFQKYGYSPRVKKNSVHEQEAINSDPELSNCENFQKTDVKDDLSDPPVASSCISEKSPRSPQLSDFGLERYIVSQVLPNPPQAVNNYKEEPVIVTPPTKQSLVKVLKTPKCALKMDDFECVTPKLEHFGISEYTMCLNEDYTMGLKNARNNKSEEAIDTESRLNDNVFATPSPIIQQLEKSDAEYTNSPLVPTFCTPGLKIPSTKNSIALVSTNYPLSKTNSSSNDLEVEDRTSLVLNSDTCFENLTDPSSPTISSYENLLRTPTPPEVTKIPEDILQLLSKYNSNLATPIAIKAVPPSKRFLKHGQNIRDVSNKEN
# Variants of: B1
# Details: with tri23_human TRIM23, P36406
row,Variant,effect of a mutation on the interaction
1,L199S,disrupting interaction strength

# Variants of: B2
# Details: with spg21_human SPG21, Q9NZD8
row,Variant,effect of a mutation on the interaction
1,MKRQGASSERKRARIPSGKAGAANGFLMEVCVDSVESAVNAERGGADRIELCSGLSEGGTTPSMGVLQVVKQSVQILVFVMIRPRGGDFLYSDREIEVMKADIRLAKLYGADGLVFGALTEDGHIDKELCMSLMAICRPLPVTFHRAFDMVHDPMAALETLLTLGFERVLTSGCDSSALEGLPLIKRLIEQAKGRIVVMPGGGITDRNLQRILEGSGATEFHCSARSTRDSGMKFRNSSVAMGASLSCSEYSLKVTDVTKVRTLNAIAKNILV [P77L],disrupting interaction strength

# Variants of: B3
# Details: with gfap_human GFAP
row,Variant,effect of a mutation on the interaction
1,MTTQQIDLQGPGPWGFRLVGGKDFEQPLAISRVTPGSKAALANLCIGDVITAIDGENTSNMTHLEAQNRIKGCTDNLTLTVARSEHKVWSPLVTEEGKRHPYKMNLASEPQEVLHIGSAHNRSAMPFTASPASSTTARVITNQYNNPAGLYSSENISNFNNALESKTAASGVEASSRPLDHAQPPSSLVIDKESEVYKMLQEKQELNEPPKQSTSFLVLQEILESEEKGDPNKPSGFRSVKAPVTKVAASIGNAQKLPMCDKCGTGIVGVFVKLRDRHRHPECYVCTDCGTNLKQKGHFFVEDQIYCEKHARERVTPPEGYEVVTVFPK [N175S],with no effect

# Variants of: B4
# Details: with tfp11_human TFIP11, Q9UBB9
row,Variant,effect of a mutation on the interaction
1,G17S,with no effect

# Variants of: B4
# Details: with tpm3_human TPM3, P06753
row,Variant,effect of a mutation on the interaction
1,G17S,with no effect

# Variants of: B5
# Details: with vps28_human VPS28, Q9UK41
row,Variant,effect of a mutation on the interaction
1,MAGAGSEARFAGLSLVQLNELLEDEGQLTEMVQKMEETQNVQLNKEMTLASNRSLAEGNLLYQPQLDTLKARLTQKYQELQVLFEAYQIKKTKLDRQSSSASLETLLALLQAEGAKIEEDTENMAEKFLDGELPLDSFIDVYQSKRKLAHIRRVKIEKLQEMVLKGQRLPQALAPLPPRLPELAPTAPLPYPAPEASGPPAVAPRRIPPPPPPVPAGRLATPFTAAMSSGQAVPYPGLQCPPLPPRVGLPTQQGFSSQFVSPYPPPLPQRPPPRLPPHQPGFILQ [M151I],with no effect

# Variants of: B6
# Details: with ska1_human SKA1, Q96BD8
row,Variant,effect of a mutation on the interaction
1,MDPIRSFCGKLRSLASTLDCETARLQRALDGEESDFEDYPMRILYDLHSEVQTLKDDVNILLDKARLENQEGIDFIKATKVLMEKNSMDIMKIREYFQKYGYSPRVKKNSVHEQEAINSDPELSNCENFQKTDVKDDLSDPPVASSCISEKSPRSPQLSDFGLERYIVSQVLPNPPQAVNNYKEEPIIVTPPTKQSLVKVLKTPKCALKMDDFECVTPKLEHFGISEYTMCLNEDYTMGLKNARNNKSEEAIDTESRLNDNVFATPSPIIQQLEKSDAEYTNSPLVPTFCTPGLKIPSTKNSIALVSTNYPLSKTNSSSNDLEVEDRTSLVLNSDTCFENLTDPSSPTISSYENLLRTPTPPEVTKIPEDILQLLSKYNSNLATPIAIKAVPPSKRFLKHGQNIRDVSNKEN [V187I],with no effect
2,MDPIRSFCGKLRSLASTLDCETARLQRALDGEESDFEDYPMRILYDLHSEVQTLKDDVNILLDKARLENQEGIDFIKATKVLMEKNSMDIMKIREYFQKYGYSPRVKKNSVHEQEAINSDPELSNCENFQKTDVKDDLSDPPVASSCISEKSPRSPQLSDFGLERYIVSQVLPNPPQAVNNYKEEPVIVTPPTKQSLVKVLKTPKCALKMDDFECVTPKLEHFGISEYTMCLNEDYTMGLKNARNNKSEEAIDAESRLNDNVFATPSPIIQQLEKSDAEYTNSPLVPTFCTPGLKIPSTKNSIALVSTNYPLSKTNSSSNDLEVEDRTSLVLNSDTCFENLTDPSSPTISSYENLLRTPTPPEVTKIPEDILQLLSKYNSNLATPIAIKAVPPSKRFLKHGQNIRDVSNKEN [T254A],with no effect
3,MDPIRSFCGKLRSLASTLDCETARLQRALDGEESDFEDYPMRILYDLHSEVQTLKDDVNILLDKARLENQEGIDFIKATKVLMEKNSMDIMKIREYFQKYGYSPRVKKNSVHEQEAINSDPELSNCENFQKTDVKDDLSDPPVASSCISEKSPRSPQLSDFGLERYIVSQVLPNPPQAVNNYKEEPVIVTPPTKQSLVKVLKTPKCALKMDDFECVTPKLEHFGISEYTMCLNEDYTMGLKNARNNKSEEAIDTESRLNDNVFATPSPIIQQLEKSDAEYTNSPLVPTFCTPGLKIPSTKNSIALVSTNYPLSKTNSSSNDLEVEDRTSLVLNSETCFENLTDPSSPTISSYENLLRTPTPPEVTKIPEDILQLLSKYNSNLATPIAIKAVPPSKRFLKHGQNIRDVSNKEN [D335E],with no effect
